Measurements published in US7105488B1, “G protein-coupled receptor antagonists” (priority 1998, dated 2006).
Where a SMILES comes first, the peptide text is derived from it. Where no end group is shown, it is not given here. rhodamine = not defined here; Rhod = not defined here

Tests used:
CXCR4 receptor [1] = molecular target: CXCR4 receptor (Homo sapiens, UniProt P61073); assay: Inhibition of SDF-1α-induced intracellular calcium release (Fura-2/AM) in HeLa and U87 cells; format: cell-based; conditions: for Decrease in antagonist potency relative to F-2-2: structure-activity of TM2 peptides
CXCR4 receptor (Homo sapiens, UniProt P61073), sequence (P61073 whole entry): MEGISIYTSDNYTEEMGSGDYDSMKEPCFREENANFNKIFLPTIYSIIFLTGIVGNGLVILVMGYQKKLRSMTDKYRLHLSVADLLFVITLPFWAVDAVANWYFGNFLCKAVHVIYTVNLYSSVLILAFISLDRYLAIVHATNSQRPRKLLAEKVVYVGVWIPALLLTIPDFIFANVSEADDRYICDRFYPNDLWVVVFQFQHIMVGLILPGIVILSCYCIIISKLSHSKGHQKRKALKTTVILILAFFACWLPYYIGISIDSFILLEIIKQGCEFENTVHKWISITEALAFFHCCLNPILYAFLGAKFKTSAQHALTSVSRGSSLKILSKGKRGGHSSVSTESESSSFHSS
Procedure: The effect of the peptides on CXCR4-mediated calcium fluxes in HeLa cells that naturally express the CXCR4 receptor and U87 cells stably expressing the CXCR4 receptor was tested as follows. Cells grown on Nunc cover glass chamber slides were incubated with 1 micromolar Fura-2/AM for 20 min in a CO2-incubator, rinsed with PBS and mounted on the stage of a Zeiss Axiovert inverted microscope. [Ca^2+]i measurements were performed using an Attofluor digital imaging system (Atto Instruments, Rockville, Md.). Fluorescence of Fura was excited at alternating wavelength of 340 and 380 nm. […] Calibrations of [Ca^2+]i signals were performed using Ca^2+ standards containing 1 micromolar Fura. CXCR4 antagonists were tested on HeLa cells and U87 cells. Stromal cell-derived factor-1α (SDF-1α) was used as a specific CXCR4 agonist. CCR5 antagonists, which were used in selectivity studies as described below, were tested on HEK (human kidney […]) cells stably expressing the CCR5 receptor and RANTES was used as an agonist. The antagonist activity of the peptides was evaluated by measuring the inhibition of agonist-evoked intracellular Ca^2+i release. These measurements were carried out in Fura-2/AM-treated cells, utilizing an Attofluor digital imaging system as described above. The agonist was SDF-1 α.

CXCR4 receptor [2] = molecular target: T1, CXCR4 receptor (UniProt P61073 1-352, limits assumed); assay: cell-based or functional assay
T1 sequence (P61073 whole entry): as above

CXCR4 receptor [3] = molecular target: T1, CXCR4 receptor; assay: cell-based or functional assay; remark: listed apart in the source
CXCR4 receptor [4] = molecular target: T1, CXCR4 receptor; assay: cell-based or functional assay; remark: listed apart in the source
CXCR4 receptor [5] = molecular target: T1, CXCR4 receptor; assay: cell-based or functional assay; remark: listed apart in the source
[6] = molecular target: T2, rat cholecystokinin receptor type A (CCKAR) (rat, UniProt P30551 1-444); assay: inhibition of binding of fluorescent agonist RG-CCK-8 to CHO cells expressing rat CCKAR, quantitative confocal laser scanning microscopy
T2 construct: whole, on cells; also called cholecystokinin type A receptor
T2 sequence (looked up): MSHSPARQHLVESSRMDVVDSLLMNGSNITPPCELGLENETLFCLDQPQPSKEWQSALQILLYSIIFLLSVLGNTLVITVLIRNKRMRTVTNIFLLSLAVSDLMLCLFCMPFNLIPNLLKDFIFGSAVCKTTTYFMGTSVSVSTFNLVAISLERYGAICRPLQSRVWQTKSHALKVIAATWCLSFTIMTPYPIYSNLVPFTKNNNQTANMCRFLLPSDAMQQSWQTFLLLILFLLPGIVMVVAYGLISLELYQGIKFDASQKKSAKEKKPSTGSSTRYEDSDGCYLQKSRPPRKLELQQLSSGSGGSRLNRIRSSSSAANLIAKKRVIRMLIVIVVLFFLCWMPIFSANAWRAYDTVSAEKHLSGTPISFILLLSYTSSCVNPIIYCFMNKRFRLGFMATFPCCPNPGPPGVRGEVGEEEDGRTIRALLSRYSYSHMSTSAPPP
Procedure: None of CCKAR-derived peptides served as antagonists of chemokine receptors and none could inhibit HIV-1 infection. The activity of the antagonists in inhibiting signaling through the receptor was compared to the ability to prevent agonist binding (Table 4). Inhibition of signaling was assessed in CCK-8 evoked intracellular calcium release in FURA-2/AM treated CHO cells stably transfected with rat CCKAR (Tarasova, et al. (1997) *J. Biol. Chem.* 272:14817). Inhibition of ligand binding was measured with the use of a fluorescent agonist, rhodamine green CCK-8 (RG-CCK-8) and quantitative confocal laser scanning microscopy (Tarasova, et al. (1997) *J. Biol. Chem.* 272:14817). Peptides derived from the first, second, and sixth transmembrane domains inhibited CCK-induced signaling through the CCKAR receptor. […] A peptide derived from the sixth domain, CCKAR-6-1, was active in inhibition of signaling, but had very low activity in inhibition of RG-CCK-8 binding.

[7] = molecular target: T2, rat cholecystokinin receptor type A …; assay: cell-based or functional assay

VITLPFWAVDAVANWYFGNKK (F-2-4 GPCR CXCR4) [Peptide F-2-4]
Concentration, required for complete inhibition of [Ca^2+I] release (CXCR4 receptor [1]; TM2-derived peptides, Table 3): >50 µM | Decrease in antagonist potency relative to F-2-2 (CXCR4 receptor [1]): 20 fold

LLFVITLPFWAVDAVANWYFGN (F-2-1 GPCR CXCR4) [Peptide F-2-1]
Concentration, required for complete inhibition of [Ca^2+I] release (CXCR4 receptor [1]; TM2-derived peptides, Table 3): 5 µM | Decrease in antagonist potency relative to F-2-2 (CXCR4 receptor [1]): more than ten-fold

DDIFLPTIYSIIFLTGIV-HN2 (DDIFLPTIYSIIFLTGIV-NH2) [Peptide F-1-5]
Concentration, required for complete inhibition of [Ca^2+I] release (CXCR4 receptor [1]; SDF-1α-induced, Table 1): >30 µM

CC[C@H](C)[C@H](NC(=O)CNC(=O)[C@@H](NC(=O)[C@H](Cc1ccc(O)cc1)NC(=O)[C@H](Cc1ccc(O)cc1)NC(=O)[C@@H]1CCCN1C(=O)[C@H](CC(C)C)NC(=O)[C@H](Cc1c[nH]c2ccccc12)NC(=O)[C@H](CS)NC(=O)[C@H](C)NC(=O)[C@H](Cc1ccccc1)NC(=O)[C@H](Cc1ccccc1)NC(=O)[C@H](C)NC(=O)[C@H](CC(C)C)NC(=O)[C@@H](NC(=O)[C@H](CC(C)C)NC(=O)[C@@H](NC(=O)[C@@H](N)C(C)C)[C@@H](C)CC)[C@@H](C)CC)[C@@H](C)CC)C(=O)N[C@@H](CO)C(=O)N[C@H](C(=O)N[C@@H](CC(=O)O)C(=O)O)[C@@H](C)CC [Peptide F-6-1] (H-VILILAFFACWLPYYIGISID-OH; N-terminus and C-terminus assumed)
Concentration, required for inhibition of signal transduction (CXCR4 receptor [1]; SDF-1α-induced intracellular calcium release, Table 2): 10 µM

AcLLFVITLPFWAVDAVANWYFGNDDK(Rhod)D (Ac-LLFVITLPFWAVDAVANWYFGNDDK(rhodamine)D; reading uncertain) [Rhod - AcF-2-2]
Concentration, required for complete inhibition of [Ca^2+I] release (CXCR4 receptor [1]; TM2-derived peptides, Table 3): 8 µM

LLFVITLPFWAVDAVANDD (F-2-5 GPCR CXCR4) [Peptide F-2-5]
Concentration, required for complete inhibition of [Ca^2+I] release (CXCR4 receptor [1]; TM2-derived peptides, Table 3): 10 µM

KAVHVIYTVNLYSSVLILAFISL-NH2 [Peptide F-3-1]
Concentration, required for complete inhibition of [Ca^2+I] release (CXCR4 receptor [1]; SDF-1α-induced, Table 1): >50 µM

LLFVITLPFWAVDAVANWYFGNKK (F-2-8 GPCR CXCR4) [Peptide F-2-8]
Concentration, required for complete inhibition of [Ca^2+I] release (CXCR4 receptor [1]; TM2-derived peptides, Table 3): 20 µM

KVYVGVWIPALLLTLPDFIF (KVYVGVWIPALLLTIPDFIF; F-4-1 GPCR CXCR4) [Peptide F-4-1]
Antagonist activity on CXCR4 signaling, in words (CXCR4 receptor [1]): abolished the antagonist activity | Concentration, required for complete inhibition of [Ca^2+I] release (CXCR4 receptor [1]; SDF-1α-induced, Table 1): >50 µM

B1: F-4-2 (peptide)
peptide: VYVGVWIPALLLTIPDFIFANDD
Concentration, required for inhibition of signal transduction (µM) (SDF-1α-induced intracellular calcium release) (CXCR4 receptor [2]): 5 µM | EC50 in anti-HIV-1 assay (µM) (cytoprotection, CEM-SS cells infected with HIV-1RF) (CXCR4 receptor [2]): 0.3 µM

B2: F-6-1 (peptide)
peptide: VILILAFFACWLPYYIGISID
Concentration, required for complete inhibition of [Ca^2+I] release (SDF-1α-induced) (CXCR4 receptor [3]): 10 µM | Concentration, required for inhibition of signal transduction (µM) (SDF-1α-induced intracellular calcium release) (CXCR4 receptor [2]): 10 µM | EC50 in anti-HIV-1 assay (µM) (cytoprotection, CEM-SS cells infected with HIV-1RF) (CXCR4 receptor [2]): > 50 µM

B3: F-2-1 (peptide)
peptide: LLFVITLPFWAVDAVANWYFGN
antagonist potency relative to F-2-2 (CXCR4 receptor [4]): > 10 fold | Concentration, required for complete inhibition of [Ca^2+I] release (CXCR4 receptor [5]): 5 µM | Concentration, required for complete inhibition of [Ca^2+I] release (SDF-1α-induced) (CXCR4 receptor [3]): 5 µM

B4: F-2-2 (peptide)
peptide: LLFVITLPFWAVDAVANWYFGNDD
Concentration, required for complete inhibition of [Ca^2+I] release (CXCR4 receptor [5]): 0.2 µM | Concentration, required for inhibition of signal transduction (µM) (SDF-1α-induced intracellular calcium release) (CXCR4 receptor [2]): 0.2 µM | EC50 in anti-HIV-1 assay (µM) (cytoprotection, CEM-SS cells infected with HIV-1RF) (CXCR4 receptor [2]): 2.27 µM

B5: F-2-8 (peptide)
peptide: LLFVITLPFWAVDAVANWYFGNKK
antagonist activity relative to F-2-2 (CXCR4 receptor [4]): 100 fold | Concentration, required for complete inhibition of [Ca^2+I] release (CXCR4 receptor [5]): 20 µM

B6: F-2-4 (peptide)
peptide: VITLPFWAVDAVANWYFGNKK
Concentration, required for complete inhibition of [Ca^2+I] release (CXCR4 receptor [5]): > 50 µM

B7: F-2-5 (peptide)
peptide: LLFVITLPFWAVDAVANDD
potency relative to F-2-2 (CXCR4 receptor [4]): 20 fold | Concentration, required for complete inhibition of [Ca^2+I] release (CXCR4 receptor [5]): 10 µM

B8: AcF-2-5 (peptide)
peptide: Ac-LLFVITLPFWAVDAVANDD
Concentration, required for complete inhibition of [Ca^2+I] release (CXCR4 receptor [5]): 10 µM

B9: F-2-6 (peptide)
peptide: LSVADLLFVITLPFWAVDAVANDD
Concentration, required for complete inhibition of [Ca^2+I] release (CXCR4 receptor [5]): 20 µM

B10: Rhod - AcF-2-2 (peptide)
peptide: Ac-LLFVITLPFWAVDAVANWYFGNDDK(Rhod)D
modifications: reading uncertain
Concentration, required for complete inhibition of [Ca^2+I] release (CXCR4 receptor [5]): 8 µM

B11: F-4-1 (peptide)
peptide: KVYVGVWIPALLLTIPDFIF
Concentration, required for complete inhibition of [Ca^2+I] release (SDF-1α-induced) (CXCR4 receptor [3]): > 50 µM

B12: F-5-1 (peptide)
peptide: HIMVGLILPGIVILSCYCIII-NH2
modifications: cysteine pairing not given here
Concentration, required for complete inhibition of [Ca^2+I] release (SDF-1α-induced) (CXCR4 receptor [3]): > 50 µM

B13: CCKAR-TM-1-6 (peptide)
peptide: DDEWQSALQILLYSIIFLLSVLGNTLVITV
notes: Synthetic peptide from the first transmembrane domain of rat CCKAR
IC50 [6]: 20 µM | Concentration, required for inhibition of signaling (CCK-8-induced intracellular calcium release) [7]: 50 µM

B14: CCKAR-TM-2-1 (peptide)
peptide: FLLSLAVSDLMLCLFCMPFNLP
notes: also called CCKAR-2-1; CCKAR-TN-2-1
IC50 [6]: 0.5 µM | Concentration, required for inhibition of signaling (CCK-8-induced intracellular calcium release) [7]: 2 µM

B15: CCKAR-TM-4-2 (#71) (peptide)
peptide: VIAATWCLSFTIMTPYPIYSNLVPFTDD
Concentration, required for inhibition of signaling (CCK-8-induced intracellular calcium release) [7]: > 50 µM

B16: CCKAR-TM-5-3 (#45) (peptide)
peptide: DDQTFLLLILFLLPGIVMVVAYGL
Concentration, required for inhibition of signaling (CCK-8-induced intracellular calcium release) [7]: > 50 µM

B17: CCKAR-TM-6-4 (#77) (peptide)
peptide: IVVLFFLCWMPIFSANAWRAYDTVDD
IC50 [6]: > 50 µM | Concentration, required for inhibition of signaling (CCK-8-induced intracellular calcium release) [7]: 5 µM

B18: F-7-1 (peptide)
peptide: ALAFFHCCLNPILYAFLGAK-NH2
modifications: cysteine pairing not given here
Concentration, required for complete inhibition of [Ca^2+I] release (SDF-1α-induced) (CXCR4 receptor [3]): > 100 µM
